The results in this text go back to patent publication US20120264231A1, “ASSAY FOR ORAI CALCIUM CHANNEL REGULATORS” (IMMUNE DISEASE INSTITUTE, INC., priority 2009, published 2012).

In test [1] the target is T1, GST-ORAI1^CT (Homo sapiens, UniProt Q96D31).
T1 construct: cDNA encoding ORAI1 residues 259-301 was amplified using PCR; made in house; host or cells: E. coli BL21 (DE3), pGEX-4T-1
The experiment in a line: GST pull down assay with GST-ORAI1^CT (residues 259-301). Format: binding. The note with it: SDS-PAGE, Coomassie staining. From the text:
Recruitment of ORAI1 to puncta by full-length STIM 1 depends on a direct or indirect interaction of STIM 1 with the C-terminal cytoplasmic tail of ORAI134,51. Therefore the direct interaction of recombinant STIM 1 proteins was next examined with a bacterially expressed fusion protein, GST-ORAI^CT, containing the cytoplasmic tail of ORAI1, residues 259-301. STIM 1^CT and the other STIM 1 fragments, except for STIM 1 (233-463), bound to GST-ORAI1^CT immobilized on resin (FIG. 2B). Binding was dependent on recognition of ORAI^CT, since there was no binding to GST alone. Because all input and bound proteins on the gel was visualized with Coomassie Brilliant Blue staining and detected no other proteins, the current experiment is unambiguous proof of a direct protein-protein interaction between STIM 1^CT and ORAI1^CT.
The cDNAs encoding mouse STIM 1^CT fragments (residues 233-685, 233-666, 233-600, 233-531, 233-498, or 233-463) were amplified via PCR and cloned into the pProEX HTb vector (Invitrogen) between the BamHI and XhoI sites for expression as His-tagged proteins. For production of the C-terminal cytoplasmic tail of ORAI 1 as a GST fusion protein, coupled to GST through the flexible linker—GSGSRGSPEF—(SEQ ID NO: 1), cDNA encoding ORAI1 residues 259-301 was amplified using PCR and cloned into the pGEX-4T-1 vector (GE Healthcare) between the BamHI and NotI sites. […]

Test [2] can be described thus: Cameleon intravesicular Ca^2+ assay, control vesicles. The note with it: ionomycin 20 μM. Format: biochemical, S cerevisiae. The method, then: In complementary measurements, vesicular Ca^2+ was monitored directly by coexpressing ORAI1 with the Ca^2+ sensor D3 cpV or D4 cpV53 fused to the α-mating factor secretion signal to target the sensor to the vesicles. Vesicles that had incorporated ORAI1 were isolated from sec6-4 yeast incubated at the restrictive temperature and were diluted into assay buffer.
S cerevisiae strain NY17 featuring the temperature-sensitive sec6-4 mutation was used for protein expression and purification of secretory vesicles as described (Nakamoto, R. K., et al., J Biol Chem 266, 7940-7949 (1991); Coury, L. A., et al., Methods Enzymol 306, 169-186 (1999)). Cells were grown to midlog phase at 25° C. in uracil-deficient synthetic complete medium containing glucose, which was subsequently exchanged for galactose to induce transgene expression over a period of 8 hours. The temperature was then switched to 37° C. for 3 hours to force intracellular accumulation of secretory vesicles. […] Myc-tagged ORAI1 was detected in Western blots using the murine anti-Myc monoclonal antibody 9E10.
Changes in intravesicular [Ca^2+] were monitored with the modified Ca^2+ sensors cameleon D3 cpV and D4 cpV53. […] Emission spectra were recorded from 450-560 nm with excitation set at 410 nm, with a 5-8 nm slitwidth for both excitation and emission, and corrected by subtracting the spectrum obtained with buffer alone. […]

T1 sequence (Q96D31 259-301): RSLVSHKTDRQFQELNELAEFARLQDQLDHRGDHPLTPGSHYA

For the molecule “STIM1^CT: cytoplasmic region of STIM1, mouse residues 233-685, His-tagged recombinant protein expressed in E coli”, the “binding to GST-ORAI1^CT immobilized on resin” value in test [1] was “bound”. For `C[C@H](CCC(=O)O)C[C@H](C)C[C@H](C)C(=O)/C=C(\O)[C@H](C)C[C@H](C)C/C=C/[C@@H](C)[C@@H](O)[C@@H](C)[C@@H](O)C[C@@H]1CC[C@@](C)([C@H]2CC[C@@](C)([C@@H](C)O)O2)O1` [ionomycin, reference compound], the “Ca^2+ release from control vesicles (cameleon)” value in test [2] is recorded as “effective in releasing Ca^2+”.
